Laboratory results as given in patent US7799901B2, “Modulators of the function of FAS receptors and other proteins” (Yeda Research and Development Co. Ltd., priority 1995, dated 2010).

How the values were obtained:
[1] = molecular target: T1, p75 TNF receptor (Homo sapiens, UniProt P20333); assay: Two-hybrid test of MORT-1 binding (FIG. 1), p75 TNF receptor; conditions: p75-IC residues 287-461, FIG. 1
T1 construct: human p75 TNF receptor (p75-IC, residues 287-461); expressed in transfected cells; host or cells: SFY526 yeast
T1 sequence (P20333 287-461): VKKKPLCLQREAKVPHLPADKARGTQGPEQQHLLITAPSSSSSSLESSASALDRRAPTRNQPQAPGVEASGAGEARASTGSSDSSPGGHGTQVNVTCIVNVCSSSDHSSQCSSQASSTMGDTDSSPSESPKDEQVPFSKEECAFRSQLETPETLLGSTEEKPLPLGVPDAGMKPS
From the text: To isolate proteins interacting with the intracellular domain of the FAS-R, the yeast two-hybrid system was used (Fields and Song, 1989). […] In this system, the genes for the candidate interacting proteins are cloned into separate expression vectors. In one expression vector, the sequence of the one candidate protein is cloned in phase with the sequence of the GAL4 DNA-binding domain to generate a hybrid protein with the GAL4 DNA-binding-domain, and in the other vector, the sequence of the second candidate protein is cloned in phase with the sequence of the GAL4 activation domain to generate a hybrid protein with the GAL4-activation domain. The two hybrid vectors are then co-transformed into a yeast host strain having a lacZ or HIS3 reporter gene under the control of upstream GAL4 binding sites. Only those transformed host cells (cotransformants) in which the two hybrid proteins are expressed and are capable of interacting with each other, will be capable of expressing the reporter gene. In the case of the lacZ reporter gene, host cells expressing this gene will become blue in color when X-gal is added to the cultures. […]
In FIG. 1, there is depicted the interaction of the proteins encoded by the Gal4 DNA binding domain and activation-domain constructs (pGBT9 and pGAD-GH) within transfected SFY526 yeasts as assessed by β-galactosidase expression filter assay. […]

[2] = tested on: breast carcinoma MCF7 cells; assay: Cell death on overexpression of MACH isoforms in MCF7 cells; format: cell-based, human; conditions: β-galactosidase-expressing cells with apoptopic morphology, 20 h after transfection
Experimental: To explore the involvement of MACH in cell-death induction, the effect of overexpression of various MACH isoforms on cell viability was examined. The test was performed by transfecting MACH expression vectors together with a β-galactosidase expression vector as a transfection marker into human embryonic kidney 293-EBNA cells and breast carcinoma MCF7 cells.
(§1) In brief, 293-EBNA cells, MCF7 human breast carcinoma cells and HeLa HtTA-1 cells were grown in Dulbecco's modified Eagle's minimal essential medium supplemented with 10% fetal calf serum, nonessential amino acids, 100 U/ml penicillin and 100 μg/ml streptomycin. Cell tissue culture dishes (5×10^5 293-EBNA cells, 3×10^5 s MCF7 cells or 3×10^5 HeLa cells in 6-cm dishes) were transiently transfected, using the calcium phosphate precipitation method, with the cDNAs of the indicated proteins together with the β-galactosidase expression vector. In the experiments presented in FIGS. 14A-D and 15, each dish was transfected with 3.5 μg of the indicated MACH construct and 1.5 μg of pSV-β-gal. In the experiments presented in FIGS. 16A-D and 17-19, each dish was transfected with 2.5 μg of the indicated MACH or MORT1 construct (or, as control, empty vector) and 1.5 μg of pSV-β-gal. The cells were rinsed 6 to 10 h after transfection. The 293-EBNA and MCF7 cells were incubated for a further 18 h without additional treatment. The HeLa cells were incubated for 26 h after transfection and-then for 5 h in the presence of either anti-Fas.APO1 antibody (CH11, 0.5 μg/ml) or TNF (100 ng/ml), together with cycloheximide (10 μg/ml). The extent of cell death at the end of the incubation periods was assessed by determination of β-galactosidase expression, as described by Kumar et al, 1994.
In particular, FIGS. 14A-D show the morphology of human embryonic kidney 293-EBNA cells transiently expressing the indicated MACH isoforms. The arrows (FIG. 14B) point to apoptopic cells. Photographs were taken 26 h after transfection. […] Data are from three independent experiments with the 293-EBNA cells and two independent experiments with the MCF7 cells.

[3] = tested on: Fas/APO1-induced death of HeLa cells; assay: Death of HeLa cells expressing Fas/APO1 induced by anti-Fas/APO1 antibody and cycloheximide; format: cell-based, human; conditions: HeLa cells transiently expressing Fas/APO1; CH11 0.5 μg/ml, cycloheximide 10 μg/ml
Experimental: as §1
The HeLa cells were made responsive to Fas/APO1 by transient expression of this receptor. […] These protective effects indicate that MACHα is a necessary component of both the Fas/APO1- and the p55-R-induced signaling cascades for cell death.
In particular, FIGS. 16A-D show morphology of 293-EBNA cells in which cell death was induced by transient expression of a chimera comprised of the extracellular domain of the p55-R (amino acids 1-168) fused to the transmembrane and intracellular domains of Fas/APO1 (amino acids 153-319) (p55-Fas chimera) (FIGS. 16A and 16B), or by expression of the p55-R (FIGS. 16C and 16D), and of cells that were protected from these cytotoxic effects by their simultaneous transfection with MACHα1 (C360S) (FIGS. 16B and 16D). Photographs were taken 26 h after transfection. FIG. 17 illustrates the quantification of death induced in 293-EBNA cells by their transfection with p55-Fas chimera or with p55-R, together with an empty vector, a MORT1 deletion mutant lacking the MACH-binding region (MORT1 (92-208)), or MACHα molecules containing a nonfunctional CED3/ICE region. […] Data are from at least two independent experiments and are expressed as in FIGS. 14A-F and 15.

Molecule | binding to p75 TNF receptor in two-hybrid test [1] | cell death of transfected MCF7 cells [2] | protection against death induced by anti-Fas/APO1 antibody and cycloheximide [3]
MORT-1: Mediator of Receptor-induced Toxicity; protein binding the intracellular domain of FAS-R, SEQ ID NO:2 (protein) VNQAPECRFGGGILGPLGKRRDLARASEPRTEGARRAGPQPRPLADPAMDPFLVLLHSVSSSLSSSELTELKFLCLGRVVKRKLERVQSGLDLFSMLLEQNDLEPGHTELLRELLASLRRHDLLRRVDDFEAGAAAGAAPGEEDLCAAFNVICDNVGKDWRRLARQLKVSDTKIDSIEDRYPRNLTERVRESLRIWKNTEKENATVAHLVGALRSCQMNLVADLVQEVQQARDLQNRSGAMSPMSWNSDASTSEAS | not | – | –
MACHα1 (C360S): MACHα1 mutant in which the catalytic cysteine Cys360 is replaced by Ser (protein) MDFSRNLYDIGEQLDSEDLASLKFLSLDYIPQRKQEPIKDALMLFQRLQEKRMLEESNLSFLKELLFRINRLDLLITYLNTRKEEMERELQTPGRAQISAYRVMLYQISEEVSRSELRSFKFLLQEEISKCKLDDDMNLLDIFIEMEKRVILGEGKLDILKRVCAQINKSLLKIINDYEEFSKERSSSLEGSPDEFSNGEELCGVMTISDSPREQDSESQTLDKVYQMKSKPRGYCLIINNHNFAKAREKVPKLHSIRDRNGTHLDAGALTTTFEELHFEIKPHDDCTVEQIYEILKIYQLMDHSNMDCFICCILSHGDKGIIYGTDGQEAPIYELTSQFTGLKCPSLAGKPKVFFIQASQGDNYQKGIPVETDSEEQPYLEMDLSSPQTRYIPDEADFLLGMATVNNCVSYRNPAEGTWYIQSLCQSLRERCPRGDDILTILTEVNYEVSNKDDKKNMGKQMPQPTFTLRKKLVFPSD | – | No death | prevention
MACHβ1: MACH isoform, cDNA SEQ ID NO: 4, amino acid SEQ ID NO: 5; lacks the CED3/ICE homology region (protein) MDFSRNLYDIGEQLDSEDLASLKFLSLDYIPQRKQEPIKDALMLFQRLQEKRMLEESNLSFLKELLFRINRLDLLITYLNTRKEEMERELQTPGRAQISAYRVMLYQISEEVSRSELRSFKFLLQEEISKCKLDDDMNLLDIFIEMEKRVILGEGKLDILKRVCAQINKSLLKIINDYEEFSKERSSSLEGSPDEFSNDFGQSLPNEKQTSGILSDHQQSQFCKSTGESAQTSQH | – | some slight cell death | –
